T1: Sso7c4 (Saccharolobus (Sulfolobus) solfataricus …, UniProt P81552 2-56)
T1 sequence: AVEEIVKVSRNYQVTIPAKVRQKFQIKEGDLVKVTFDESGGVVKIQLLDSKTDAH

B1: 8-mer duplex (SPR, biotinylated) (dsDNA)
DNA 1: CGCTATAGCG
DNA 2: CGCTATAGCG
B2: 16-mer duplex (SPR, biotinylated) (dsDNA)
DNA 1: CGCGTACGCGTACGCG
DNA 2: CGCGTACGCGTACGCG
B3: 16-mer duplex (NMR) (dsDNA)
DNA 1: CGCGTACGCGTACGCGTA
DNA 2: TACGCGTACGCGTACGCG
B4: 12-mer duplex (dsDNA)
DNA 1: CAATCCGGATTG
DNA 2: CAATCCGGATTG

Key:
Sso7c4 [1] = target: T1, Sso7c4; assay: SPR
Sso7c4 [2] = target: T1, Sso7c4; assay: NMR 1H-15N HSQC titration
Sso7c4 [3] = target: T1, Sso7c4; assay: NMR 1D 1H titration of DNA

Binder	Kd (Sso7c4 [1])	also measured
B1	10.1 µM	
B2	1.54 µM	
B3		binding result (Sso7c4 [2]): binds
B4		binding result (Sso7c4 [3]): binds

Reference: paper PMC3159460
